US20260263607A1, “INHIBITION OF MYC USING HIGH-DENSITY BRUSH POLYMERS” (Northwestern University, priority 2022, published 2026)
Each block holds one molecule with its values, some of them ahead of it. Ends that are not written are not given here. norbornene = norbornene on aminohexanoic acid N-terminal cap, polymerised by ROMP; Ahx = NCCCCCC(=O)O

Columns and labels:
[1] = target: T1, MYC T58A (Homo sapiens, UniProt P01106, T73A); assay: Western blot of MYC T58A in PC-3 MYC^T58A cells; assay type: cell-based; settings: 6 h; 2.5 and 5 μM HYDRAC, FIG. 31C
T1 construct: expressed in transfected cells
T1 sequence (P01106 16-454 T73A): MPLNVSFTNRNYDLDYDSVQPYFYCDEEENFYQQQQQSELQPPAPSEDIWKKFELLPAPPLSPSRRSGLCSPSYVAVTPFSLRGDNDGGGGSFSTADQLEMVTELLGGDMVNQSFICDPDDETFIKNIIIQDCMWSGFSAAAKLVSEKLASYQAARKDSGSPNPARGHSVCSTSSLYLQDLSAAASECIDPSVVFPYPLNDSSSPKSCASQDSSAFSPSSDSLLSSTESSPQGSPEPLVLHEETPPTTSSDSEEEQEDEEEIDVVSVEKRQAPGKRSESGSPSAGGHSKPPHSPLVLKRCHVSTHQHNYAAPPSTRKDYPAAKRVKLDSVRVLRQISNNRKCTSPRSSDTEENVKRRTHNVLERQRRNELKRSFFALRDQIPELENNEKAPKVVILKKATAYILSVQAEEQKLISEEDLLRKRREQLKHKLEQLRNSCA
Protocol: Western BlotAnalysis: Cells were lysed in RIPA (Sigma) lysis buffer containing 1×Halt™ Protease and Phosphatase Inhibitor Cocktail (ThermoFisher). Protein concentration was measured by Bio-Rad Bradford reagent. Protein samples were prepared by addition of 4×Laemmli Sample buffer (Bio-Rad) and 2-mercaptoethanol (Bio-Rad) and resolved on 4-12% SDS-PAGE (Sodium dodecyl sulfate-polyacrylamide) gels, which were subsequently transferred to PVDF membranes (Bio-Rad) using Trans-Blot Turbo transfer buffer (Bio-Rad) and a Trans-Blot Turbo Transfer System (Bio-Rad). Membranes were blocked for 1 h at room temperature with 5% blotting-grade blocker non-fat dry milk (Bio-Rad), followed by overnight 4° C. incubation with the appropriate primary antibody and 1 h room temperature incubation with an anti-rabbit or anti-mouse IgG (H+L)-HRP conjugate (Bio-Rad) secondary antibody. Blots were imaged using Supersignal West Femto Maximum Sensitivity Substrate detection system (Thermo) and the ChemiDoc Imaging System (Bio-Rad). The following primary antibodies were used: c-Myc (Y69) (Abcam #ab32072), Streptavidin-HRP (PerkinElmer NEL750), GAPDH (Cell Signaling #3683) and Actin (Cell Signaling #5125). Quantification analyses were performed by Biorad ChemiDoc Imager and Bio-Rad Image Lab software. […]

[2] = target: T2, b-HLH-LZ domain of Myc (Homo sapiens, UniProt P01106); assay: Circular dichroism, dimerization with Myc b-HLH-LZ; assay type: binding; settings: 1 μM PLP plus 5 μM bHlH
T2 construct: dimerize with either the b-HLH-LZ domain of Myc or full length Max
T2 sequence (P01106 368-454 limits assumed): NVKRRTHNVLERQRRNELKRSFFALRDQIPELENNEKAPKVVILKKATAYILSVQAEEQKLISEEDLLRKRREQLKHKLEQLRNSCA
Protocol: (§1) Circular Dichroism (CD) Spectroscopy: CD spectra were obtained on a JASCO J-815 spectrometer equipped with a Peltier sample holder for temperature control. Polymer samples were dissolved in buffered solvent to concentrations of approximately 1 μM, and placed into a 1 cm quartz cuvette (Hellma). Protein samples were measured at 5 μM. All samples were equilibrated at room temperature for at least thirty minutes prior to measurement, with mixtures (i.e. protein and polymer combinations) being generally equilibrated for 12 hours prior to measurement. Spectra were obtained using a scan speed of 10 nm/min, using a 1 nm bandwidth, 4 sec response time, and with three accumulations. Background spectra of solvent were obtained prior to measurement of the sample solutions, and subtracted from the sample spectra using JASCO Spectra Analysis. For melting experiments, the temperature was varied between 2° and 91° C. with steps of 1° C./min, while measuring the ellipticity at 222 nm with a 2 nm bandwidth.
(§2) It has been previously reported (Blum et al., Kammeyer et al., and Berger et al., Mussel Adhesive-Inspired Proteomimetic Polymer, Journal of Am. Chem. Soc., 144, 4383-4392 (2022)) that peptide brush polymers with a DP around 15 synthesized in a similar manner maintain payload bioactivity and readily enter cells. As such, initial HYDRAC designs revolved around this molecular size range. […]

[3] = target: full length Max (Homo sapiens, UniProt P61244); assay: Circular dichroism, binding to Max; settings: 1 μM PLP plus 5 μM Max
Sequence of full length Max (P61244 whole entry): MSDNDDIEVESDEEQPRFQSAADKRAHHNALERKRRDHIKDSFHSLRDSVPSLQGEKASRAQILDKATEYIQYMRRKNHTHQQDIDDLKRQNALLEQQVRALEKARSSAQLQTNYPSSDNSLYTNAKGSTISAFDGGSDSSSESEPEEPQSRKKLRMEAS
Protocol: as §1, §2

[4] = test system: PC-12 Pheochromocytoma (which lack the Myc dimerization partner Max) cell lines; assay: PC-12 cell viability; assay type: cell-based; settings: treated for 3 days, FIG. 5A
Protocol: (§3) Cell Culture: PC-3, PC-12, A549 cells were obtained from ATCC; Mouse MycCaP cells were the kind gift of Charles Sawyers (Memorial Sloan-Kettering Cancer Centre). All cells were authenticated and tested as mycoplasma-free. PC-3 and A549 cells were grown in F12K (Gibco) medium; MycCaP cells in DMEM medium (Gibco), all supplemented with 10% heat-inactivated fetal bovine serum (FBS, Gibco). PC-12 cells were grown in F-12K medium (ATCC) with 5% heat-inactivated FBS and 10% heat-inactivated horse serum (Thermo). All cells were cultured in 1% Penicillin-Streptomycin (10,000U/ml, Life Technologies) and 5% CO2 in a humidified incubator at 37° C.
(§4) Cell Proliferation Assays: Cell viability was estimated using the CellTiter-Glo® Luminescent Cell Viability Assay (Promega). […] After 3 to 5 days following the treatment, CellTiter-Glo reagent was added mixed 1:1 vol/vol with fresh media, plates incubated for 10 minutes on a shaking rotator followed by 10 minutes without shaking at room temperature (protected from light using aluminum foil) and luminescence was measured using plate reader (Perkin Elmer Victor 3V).
(§5) This example provides data supporting toxicity of cancer cells in vitro after treatment with Myc-targeted PLPs. […] Cells were treated with PLP 5.2 for 3 days and cellular viability was recorded. […]

[5] = target: T3, Myc protein from PC-3 cell lysates (Homo sapiens, UniProt P01106); assay: In vitro pull down assay with biotin-terminated PLPs; assay type: binding; settings: PC-3 cell lysate, 10 μM or 2 μM biotinylated PLPs, FIG. 5B
T3 construct: Degradation of endogenous Myc protein in PC-3 cells was explored; endogenous in cells; host or cells: PC-3
T3 sequence (P01106 whole entry): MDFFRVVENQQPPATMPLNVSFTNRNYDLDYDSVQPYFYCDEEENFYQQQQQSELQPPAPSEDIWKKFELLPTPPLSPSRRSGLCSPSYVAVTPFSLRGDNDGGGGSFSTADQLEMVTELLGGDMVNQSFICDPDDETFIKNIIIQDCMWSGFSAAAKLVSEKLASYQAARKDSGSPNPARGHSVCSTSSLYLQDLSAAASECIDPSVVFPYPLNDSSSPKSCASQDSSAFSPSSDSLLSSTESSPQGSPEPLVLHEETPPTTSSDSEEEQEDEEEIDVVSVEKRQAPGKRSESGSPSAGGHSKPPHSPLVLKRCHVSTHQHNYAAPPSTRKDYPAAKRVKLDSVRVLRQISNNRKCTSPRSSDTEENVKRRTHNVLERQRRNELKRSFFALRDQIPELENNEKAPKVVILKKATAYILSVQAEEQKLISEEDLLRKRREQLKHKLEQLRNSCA
Protocol: In vitro Pull Down Assay: To confirm PLP direct binding to endogenous Myc protein in cell lysate complex, biotin conjugated PLP was synthesized. Collected PC-3 cell pellet (2 million cells per pulldown condition) was suspended in 300 μL pulldown lysis buffer (pH 7.4 50 mM Tris-HCl, 150 mM NaCl, 1 mM EDTA, 0.1% IGEPAL nonionic detergent+1× Halt protease/phosphatase inhibitor cocktail) and lysed by repeat (3×) freeze-thawing in liquid nitrogen. The lysed cell pellets were spun at 4° C. for 15 minutes at 15,000 rpm on a Eppendorf 5424R centrifuge. The collected supernatants were pre-cleared with Pierce streptavidin magnetic beads (Thermo, 88817) for 1 hr at 4° C. For Examples 7 and 10, around 300 μg was applied to each sample and incubated with 5 μM of HYDRAC, scrambled HYDRAC, 10 μM of H1 homopolymer, scrambled H1 homopolymer or D-Biotin on a rotator over night at 4° C. […]
as §2, with “cells.” for “cells. As such, initial HYDRAC designs revolved around this molecular size range.”
as §5

[6] = test system: PC-3 prostate cancer cells; assay: PC-3 cell viability / toxicity (CellTiter-Glo); assay type: cell-based; settings: PC-3, 72 hours treatment, FIG. 2D; read-out: IC50 (concentration of peptide which exhibited 50% cell viability for PC-3)
Protocol: as §3, §4
This example evaluates the toxicity of Myc-targeting PLPs in the PC-3 cancer cell line. • Example 3.1—Generation of Block and Statistical Copolymers. […] Cellular viability was assessed via the Cell Prolferation Assays protocol provided above. • Example 3.2—Results. […]

[7] = target: endogenous Myc protein of PC-3 cells (in PC-3 cell lysate or in the cells) (UniProt P01106 1-454, limits assumed); assay: cell-based or functional assay
Sequence of endogenous Myc protein of PC-3 cells (in PC-3 cell lysate or in the cells) (P01106 whole entry): as above

Molecule: NELKRAFAALRDQI-NH2 [unpolymerized H1 peptide, NELKRAFAALRDQI, reference compound]
- IC50 [6]: 700 µM

B1: PLP 5.2, H17-stat-RRRG6 (Example 9.4, FIG. 5A) (other)
peptide 1: {norbornene-Ahx}-NELKRAFAALRDQI-NH2
peptide 2: {norbornene-Ahx}-RRRG-NH2
modifications: also: polymerised through N-terminal norbornene by ROMP into polymer backbone, statistical copolymer of both peptides
- IC50 of PC-3 cell viability after 3 days of treatment (CTGlo) [7]: 0.49 µM

Further lines, with some results ahead:

- MYC^T58A protein level [1]: only minor changes in mutant MYC levels
Molecule: Cn1nc(C(F)(F)F)cc1-c1ccc(OCc2ccc(Cl)cc2)c(-c2ccc(Cl)c(C(F)(F)F)c2)c1O [MYCi975]

- Max binding (CD) [3]: limited Max/HYDRAC binding
Molecule: H16-stat-RRRG7 (peptide 1 NELKRAFAALRDQI) [H1-R PLP]
- heterodimerization with Myc b-HLH-LZ (CD) [2]: selective Myc/HYDRAC heterodimerization in the low micromolar range

- IC50 [4]: 10.2 µM
Molecule: H17-stat-RRRG6 (peptide 1 NELKRAFAALRDQI) [PLP 5.2]
- Myc pull down [5]: capable of direct endogenous binding to Myc protein
